Data taken from patent US7097986 (dated 2006).

Biological target: T1, VEGFR-1/Ig (human, UniProt P17948)
T1 chain: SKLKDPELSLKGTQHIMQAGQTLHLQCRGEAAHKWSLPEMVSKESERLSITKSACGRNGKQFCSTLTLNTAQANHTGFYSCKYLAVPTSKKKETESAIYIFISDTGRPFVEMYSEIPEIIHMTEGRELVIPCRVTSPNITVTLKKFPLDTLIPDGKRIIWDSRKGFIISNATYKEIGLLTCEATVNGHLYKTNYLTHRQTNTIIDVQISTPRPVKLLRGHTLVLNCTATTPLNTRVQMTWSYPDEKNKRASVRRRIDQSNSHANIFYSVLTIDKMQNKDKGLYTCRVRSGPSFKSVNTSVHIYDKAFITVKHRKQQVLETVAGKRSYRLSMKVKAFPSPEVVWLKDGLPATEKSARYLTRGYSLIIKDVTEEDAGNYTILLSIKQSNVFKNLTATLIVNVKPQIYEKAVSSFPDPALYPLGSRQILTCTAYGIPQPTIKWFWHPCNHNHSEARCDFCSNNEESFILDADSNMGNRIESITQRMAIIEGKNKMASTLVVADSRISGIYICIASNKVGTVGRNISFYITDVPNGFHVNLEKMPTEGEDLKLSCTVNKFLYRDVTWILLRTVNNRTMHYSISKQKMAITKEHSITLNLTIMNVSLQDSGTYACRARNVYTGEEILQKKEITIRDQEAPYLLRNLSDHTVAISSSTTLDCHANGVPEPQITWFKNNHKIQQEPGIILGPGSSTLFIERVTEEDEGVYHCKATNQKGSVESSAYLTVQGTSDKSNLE
Assay: ELISA

B1: VEGF-DΔNΔC (protein)
chain: FYDIETLKVIDEEWQRTQCSPRETCVEVASELGKSTNTFFKPPCVNVFRCGGCCNEESLICMNTSTSYISKQLFEISVPLTSVPELVPVKVANHTGCKCLPTAPRHPYS
**Q.** Does B1 bind?
**A.** no binding
